{
  "source": "patent US20210230599",
  "about": "“STEM-LOOP COMPOSITIONS AND METHODS FOR INHIBITING INTERLEUKIN-8” (VITRISA THERAPEUTICS, INC., published 2021)",
  "data": [
    {"biological_target": "T1, Interleukin-8 (IL8, CXCL8), C-terminal His-tagged (Homo sapiens, UniProt P10145 SEQ:1-72)", "assay": "competition; competition TR-FRET", "conditions": "tags: C-terminal 6xHis (Sino Biological)", "method": "(§1) Activity of each of these variants were tested using a time resolved competition TR-FRET assay in which the labeled parent Aptamer 3 was competed with increasing concentrations of unlabeled variants for binding to IL8 (FIG. 14). Briefly, 2-fold dilutions of thermally equilibrated aptamers were made in TR-FRET Buffer (50 mM MOPS, pH 7.4, 125 mM NaCl, 5 mM KCl, 50 μM CHAPS, 0.1 mg/mL BSA, 1 mM CaCl₂, and 1 mM MgCl₂). 5 μL of aptamer or control solution was added to 5 μl mix of 10 nM C-terminal His-tagged-IL8, 60 nM ALEXA FLUOR® 647-labeled Aptamer, and 5 nM anti-His-Eu (Perkin Elmer) in a black wall low volume 384 well plate (Greiner). For control, 5 μl of 1000-fold excess of unlabeled parent aptamer or 5 μl TR-FRET buffer alone was added to the mix of ALEXA FLUOR® 647-labeled aptamer, His-IL8, and anti-His-Eu. The plate was covered with a plate seal and subsequently incubated in the dark for 1 hour at room temperature. The plate was read on a Biotek CYTATION™ 5 plate reader. Samples were excited at 330 nm and fluorescent values were collected at 665 nm. Data analysis was performed by subtracting the background value and plotting as percent inhibition, normalized to baseline in the absence of competitor. The values were fit by [Inhibitor] vs. response—Variable slope (four parameters) using GraphPad Prism Version 7.0 and then normalized to aptamer control to obtain an IC₅₀ relative to parent aptamer. Data is presented as log values of relative IC₅₀.\n(§2) To better understand the sequence requirements and confirm the stem structures of members of the Aptamer 8 family as determined from sequence covariation analysis from both the primary and secondary (degenerate) selections, a series of variants which included mutations and deletions to the predicted stems (Tables 45 and 46) were synthesized and screened. Activity of each of these variants was tested using a competition TR-FRET assay in which the labeled parent Aptamer 8 was competed with increasing concentration of unlabeled variants for binding to IL8 as described in Example 11.", "units": {"binding signal": "fold worse than Aptamer 8"}, "values": [
      {"binder": "CGGUGGGACACCCGAGAUGGGUGGCCG (ssRNA, 2'-F G, 2'-OMe A/C/U, 5' C6NH2, 3' idT)", "note": "[Aptamer 121]", "binding signal": "> 10"},
      {"binder": "CGGUGGGAAAUGCGAGAUGGGUUGCCG (ssRNA, 2'-F G, 2'-OMe A/C/U, 5' C6NH2, 3' idT)", "note": "[Aptamer 115]", "binding signal": "> 10"},
      {"binder": "CGGUGGGAAAUUUGAGAUGGGUUGCCG (ssRNA, 2'-F G, 2'-OMe A/C/U, 5' C6NH2, 3' idT)", "note": "[Aptamer 114]", "binding signal": "> 10"},
      {"binder": "CGGUGGGAACUGUGAGAUGGGGUGCCG (ssRNA, 2'-F G, 2'-OMe A/C/U, 5' C6NH2, 3' idT)", "note": "[Aptamer 154]", "binding signal": "> 10"},
      {"binder": "CUGUGGGAAAUGUGAGAUGGGUUGCAG (ssRNA, 2'-F G, 2'-OMe A/C/U, 5' C6NH2, 3' idT)", "note": "[Aptamer 216]", "binding result": "binds"},
      {"binder": "CGGUGGGAAACCCGAGAUGGGUUGCCG (ssRNA, 2'-F G, 2'-OMe A/C/U, 5' C6NH2, 3' idT)", "note": "[Aptamer 120]", "binding signal": "> 10"},
      {"binder": "CGGUGGGAAAUGUGAGAUGGGAUGCCG (ssRNA, 2'-F G, 2'-OMe A/C/U, 5' C6NH2, 3' idT)", "note": "[Aptamer 215]", "binding signal": "> 10"},
      {"binder": "CGAUGGGAAAUGUGAGAUGGGUUGUCG (ssRNA, 2'-F G, 2'-OMe A/C/U, 5' C6NH2, 3' idT)", "note": "[Aptamer 218]", "binding result": "binds"},
      {"binder": "CGGUGGGAAAUAUGAGAUGGGUUGCCG (ssRNA, 2'-F G, 2'-OMe A/C/U, 5' C6NH2, 3' idT)", "note": "[Aptamer 113]", "binding signal": "> 10"},
      {"binder": "CGCUGGGAAAUGUGAGAUGGGUUGGCG (ssRNA, 2'-F G, 2'-OMe A/C/U, 5' C6NH2, 3' idT)", "note": "[Aptamer 217]", "binding result": "binds"},
      {"binder": "CGGUGGGAAACCUGAGAUGGGUUGCCG (ssRNA, 2'-F G, 2'-OMe A/C/U, 5' C6NH2, 3' idT)", "note": "[Aptamer 119]", "binding signal": "> 10"},
      {"binder": "CGGUGGGAAAUCUGAGAUGGGUUGCCG (ssRNA, 2'-F G, 2'-OMe A/C/U, 5' C6NH2, 3' idT)", "note": "[Aptamer 112]", "binding signal": "> 10"},
      {"binder": "CGGUGGGAACCGUGAGAUGGGGUGCCG (ssRNA, 2'-F G, 2'-OMe A/C/U, 5' C6NH2, 3' idT)", "note": "[Aptamer 155]", "binding signal": "> 10"},
      {"binder": "CGGUGGGACACGCGAGAUGGGUGGCCG (ssRNA, 2'-F G, 2'-OMe A/C/U, 5' C6NH2, 3' idT)", "note": "[Aptamer 118]", "binding signal": "> 10"},
      {"binder": "CGGUGGGAAACGCGAGAUGGGUUGCCG (ssRNA, 2'-F G, 2'-OMe A/C/U, 5' C6NH2, 3' idT)", "note": "[Aptamer 117]", "binding signal": "> 10"}
    ]},
    {"biological_target": "T1, Interleukin-8 (IL8, CXCL8), C-terminal …", "assay": "competition; competition TR-FRET", "conditions": "tags: C-terminal 6xHis (Sino Biological); stem-loop", "method": "as §1, §2", "values": [
      {"binder": "CGGUGGGAAAUGUGAGAUGGGUUGCCG (ssRNA, 2'-F G, 2'-OMe A/C/U, 5' C6NH2, 3' idT)", "note": "[Aptamer 32]", "binding result": "binds"}
    ]},
    {"biological_target": "T1, Interleukin-8 (IL8, CXCL8), C-terminal …", "assay": "competition; competition TR-FRET", "conditions": "tags: C-terminal 6xHis (Sino Biological)", "remark": "another data set of the same source", "method": "as §1, with “To better understand the sequence requirements and to confirm the stem structures of members of the Aptamer 3 family as determined from sequence covariation analysis from both the primary and secondary (degenerate) selections, a series of variants which included mutations and deletions to the predicted stems were synthesized and screened (Table 24). Activity” for “Activity”\nTo test the effects of variation in this region on aptamer function, aptamer clones from Round 5 of the degenerate selection which had mutations in loop L3 were synthesized (Table 26). All of the compounds were tested in the competition TR-FRET assay.", "values": [
      {"binder": "UGAUGACGAUAGAUUUCGGGUAGUGUGAUCGCAUCU (ssRNA, 2'-F G, 2'-OMe A/C/U, 5' C6NH2, 3' idT)", "note": "[Aptamer 106]", "binding result": "binds"},
      {"binder": "UGAUGACGGUAGAUUACGGGCAGUGUGACCGCAUCU (ssRNA, 2'-F G, 2'-OMe A/C/U, 5' C6NH2, 3' idT)", "note": "[Aptamer 96]", "binding result": "binds"},
      {"binder": "UGAUGACGGUAGAUAACGGGUAGUGUGACCGCAUCU (ssRNA, 2'-F G, 2'-OMe A/C/U, 5' C6NH2, 3' idT)", "note": "[Aptamer 109]", "binding result": "binds"},
      {"binder": "UGAUGACGGUAGAUUACGGGAAGUGUGACCGCAUCU (ssRNA, 2'-F G, 2'-OMe A/C/U, 5' C6NH2, 3' idT)", "note": "[Aptamer 98]", "binding result": "binds"},
      {"binder": "UGAUGACGGUAGAUUCCGGGUAGUGUGACCGCAUCU (ssRNA, 2'-F G, 2'-OMe A/C/U, 5' C6NH2, 3' idT)", "note": "[Aptamer 95]", "binding result": "binds"},
      {"binder": "UGAUGACGGUAGAUUACGGGAAGAGUGACCGCAUCU (ssRNA, 2'-F G, 2'-OMe A/C/U, 5' C6NH2, 3' idT)", "note": "[Aptamer 103]", "binding result": "binds"},
      {"binder": "UCAUGACGGUAGAUUUCGGGUAGUGUGACCGCAUGU (ssRNA, 2'-F G, 2'-OMe A/C/U, 5' C6NH2, 3' idT)", "note": "[Aptamer 101]", "binding result": "binds"},
      {"binder": "UGAUGACGGUAGAUUAUGGGUAGUGUGACCGCAUCU (ssRNA, 2'-F G, 2'-OMe A/C/U, 5' C6NH2, 3' idT)", "note": "[Aptamer 111]", "binding result": "binds"},
      {"binder": "UGAUGACGGUAGAUUAAGGGUAGUGUGACCGCAUCU (ssRNA, 2'-F G, 2'-OMe A/C/U, 5' C6NH2, 3' idT)", "note": "[Aptamer 104]", "binding result": "binds"},
      {"binder": "UGAUGACGGUAGAUAACGGGUAGAGUGACCGCAUCU (ssRNA, 2'-F G, 2'-OMe A/C/U, 5' C6NH2, 3' idT)", "note": "[Aptamer 108]", "binding result": "binds"},
      {"binder": "UGAUGACGGUAGAUUACGGGGAGUGUGACCGCAUCU (ssRNA, 2'-F G, 2'-OMe A/C/U, 5' C6NH2, 3' idT)", "note": "[Aptamer 97]", "binding result": "binds"},
      {"binder": "UCAUGACGGUAGAUUACGGGUAGAGUGACCGCAUGU (ssRNA, 2'-F G, 2'-OMe A/C/U, 5' C6NH2, 3' idT)", "note": "[Aptamer 102]", "binding result": "binds"},
      {"binder": "UGAUGACGGUAGAUUACGGGUUGUGUGACCGCAUCU (ssRNA, 2'-F G, 2'-OMe A/C/U, 5' C6NH2, 3' idT)", "note": "[Aptamer 105]", "binding result": "binds"},
      {"binder": "UGAUGACGGUAGAUUAUGGGAAGUGUGACCGCAUCU (ssRNA, 2'-F G, 2'-OMe A/C/U, 5' C6NH2, 3' idT)", "note": "[Aptamer 100]", "binding signal": "> 10 fold better than Aptamer 3"},
      {"binder": "UGAUGACGGUAGAUUUCGGGAAGUGUGACCGCAUCU (ssRNA, 2'-F G, 2'-OMe A/C/U, 5' C6NH2, 3' idT)", "note": "[Aptamer 110]", "binding result": "binds"}
    ]},
    {"biological_target": "T1, Interleukin-8 (IL8, CXCL8), C-terminal …", "assay": "competition; competition TR-FRET", "conditions": "tags: C-terminal 6xHis (Sino Biological)", "remark": "another data set of the same source", "method": "as §1, with “To better understand the sequence requirements and to confirm the stem structures of members of the Aptamer 3 family as determined from sequence covariation analysis from both the primary and secondary (degenerate) selections, a series of variants which included mutations and deletions to the predicted stems were synthesized and screened (Table 24). Activity” for “Activity”", "values": [
      {"binder": "UCAUGACGGUAGAUUACGGGUAGAGUGACCGCAUGU (ssRNA, 2'-F G, 2'-OMe A/C/U, 5' C6NH2, 3' idT)", "note": "[Aptamer 183]", "binding result": "binds"},
      {"binder": "UGAUCACGGUAGAUUACGGGUAGAGUGACCGGAUCU (ssRNA, 2'-F G, 2'-OMe A/C/U, 5' C6NH2, 3' idT)", "note": "[Aptamer 184]", "binding result": "binds"},
      {"binder": "UCUUGACGGUAGAUUACGGGUAGAGUGACCGCAUCU (ssRNA, 2'-F G, 2'-OMe A/C/U, 5' C6NH2, 3' idT)", "note": "[Aptamer 187]", "binding result": "binds"},
      {"binder": "UGAUGACAGUAGAUUACGGGUAGAGUGACUGCAUCU (ssRNA, 2'-F G, 2'-OMe A/C/U, 5' C6NH2, 3' idT)", "note": "[Aptamer 185]", "binding result": "binds"},
      {"binder": "UGCUGACGGUAGAUUACGGGUAGAGUGACCGCAGCU (ssRNA, 2'-F G, 2'-OMe A/C/U, 5' C6NH2, 3' idT)", "note": "[Aptamer 209]", "binding result": "binds"},
      {"binder": "UGAUGACGAUAGAUUACGGGUAGAGUGAUCGCAUCU (ssRNA, 2'-F G, 2'-OMe A/C/U, 5' C6NH2, 3' idT)", "note": "[Aptamer 186]", "binding result": "binds"},
      {"binder": "UGCCGACGGUAGAUUACGGGUAGAGUGACCGCGGCU (ssRNA, 2'-F G, 2'-OMe A/C/U, 5' C6NH2, 3' idT)", "note": "[Aptamer 208]", "binding result": "binds"},
      {"binder": "UGGCGACGGUAGAUUACGGGUAGAGUGACCGCGCCU (ssRNA, 2'-F G, 2'-OMe A/C/U, 5' C6NH2, 3' idT)", "note": "[Aptamer 210]", "binding result": "binds"}
    ]},
    {"biological_target": "T1, Interleukin-8 (IL8, CXCL8), C-terminal …", "assay": "competition; competition TR-FRET", "conditions": "tags: C-terminal 6xHis (Sino Biological); stem-loop", "remark": "another data set of the same source", "method": "as §1, with “To better understand the sequence requirements and to confirm the stem structures of members of the Aptamer 3 family as determined from sequence covariation analysis from both the primary and secondary (degenerate) selections, a series of variants which included mutations and deletions to the predicted stems were synthesized and screened (Table 24). Activity” for “Activity”", "values": [
      {"binder": "GAUGACGGUAGAUUACGGGUAGAGUGACCGCAUC (ssRNA, 2'-F G, 2'-OMe A/C/U, 5' C6NH2, 3' idT)", "note": "[Aptamer 38]", "binding result": "binds"},
      {"binder": "GGCGACGGUAGAUUACGGGUAGAGUGACCGCGCC (ssRNA, 2'-F G, 2'-OMe A/C/U, 5' C6NH2, 3' idT)", "note": "[Aptamer 92]", "binding result": "binds"}
    ]}
  ]
}
